The text below walks through data of patent US20060102935A1, “Transistor-based biosensors having gate electrodes coated with receptor molecules” (priority 2002, published 2006).

In data set [1] the target is T1, acetylcholine esterase (AChE) (Electrophorus electricus, UniProt O42275).
T1 construct: purchased Sigma C1682
Kind of data set: AChE-ISFET (AChE-FET) response to substrate and inhibitor in PBS. The class given is biochemical, electric eel. The settings on record: dissolved in PBS, in comparison to ACh.
Experimental: In this experiment, the ISFET has undergone covalent bonding with acetylcholine-esterase using the aforementioned cyanuryl chloride techniques. As shown in the figure, the response of the ACHE-ISFET to various doses of acetylcholine (graph I). Acetylcholine was manually applied into a solution of 5 ml Phosphate Saline Buffer (PBS) in which the ISFET resided.
Both carbamylcholine and acetylcholine have been dissolved in phosphate buffered saline (PBS).
Acetylcholine esterase (C1682, taken from electric eel), acetylcholine-iodine, acetylcholine-chloride, cyanuric chloride and eserine (physostigmine), ere purchased from Sigma and were used as supplied.
ISFETs were first rinsed with isopropanol and dried under Argon. A is solution of 0.1M cyanuric chloride (in dichloromethane) was prepared and then applied to the Al2O3 gate surface of the ISFET. ISFETs were then dried with Argon and heated at 70° C. for 15 minutes, then rinsed again with dichloromethane and dried under Argon. […]
The resulting hybrid system of Example 3, was immersed in a PBS solution as a background electrolyte for the measurements. […] The current between source and drain electrodes (Ids) was measured, while potential between drain and source electrodes (Vds), and between the gate and source electrodes (Vgs) were kept constant at 0.1V and 0.45V, respectively, recording the electrical activity occurring at the gate surface.

Another data set deals with CC(=O)OCC[N+](C)(C)C. Kind of data set: purified protein, by the assay type. Particulars: other: surface-bound AChE, Lineweaver-Burk plot, DTNB 5×10^−5 M.

T1 sequence (O42275 24-633): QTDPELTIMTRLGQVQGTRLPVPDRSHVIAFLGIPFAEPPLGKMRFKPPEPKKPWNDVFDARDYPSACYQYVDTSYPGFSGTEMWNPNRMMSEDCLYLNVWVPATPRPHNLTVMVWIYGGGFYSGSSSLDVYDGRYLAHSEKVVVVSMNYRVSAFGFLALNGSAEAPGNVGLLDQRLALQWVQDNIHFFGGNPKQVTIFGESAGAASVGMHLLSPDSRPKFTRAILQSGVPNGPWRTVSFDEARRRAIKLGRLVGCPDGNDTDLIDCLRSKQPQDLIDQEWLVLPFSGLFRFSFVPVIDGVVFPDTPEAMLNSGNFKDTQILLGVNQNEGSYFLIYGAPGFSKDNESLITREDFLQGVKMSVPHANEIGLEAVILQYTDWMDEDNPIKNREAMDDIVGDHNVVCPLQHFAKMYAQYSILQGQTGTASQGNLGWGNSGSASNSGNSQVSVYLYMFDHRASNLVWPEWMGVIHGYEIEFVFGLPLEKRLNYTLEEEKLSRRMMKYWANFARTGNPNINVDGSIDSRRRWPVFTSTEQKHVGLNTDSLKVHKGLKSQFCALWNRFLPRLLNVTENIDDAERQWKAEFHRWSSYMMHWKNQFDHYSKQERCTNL
Experimental for CC(=O)OCC[N+](C)(C)C: In this test, the enzyme activity is measured by following the increase of yellow color produced from the reaction of thiocholine with the DTNB ion (Sawada, O., Ishida, T., Kihachiro, H., J. Biochem., 129, 2001, 899-907).
The reaction of acetylthiocholine-iodide with DTNB (5,5′-dithio-bis (2-nitrobenzoic acid) marker was conducted by immersing the solid substrate containing the immobilized ACHE, obtained above, in an optical cell compatible with the spectrophotometer. The rate of color production was measure at 410 nm. All of the investigated solutions were freshly prepared: ACh in phosphate buffer of pH=8.0 and the DTNB dissolved in PBS buffer of pH=6.5.
The enzyme activity was probed by two methods: Ex-situ and In-situ experiments. In the Ex-situ experiments the solution of the marker containing ACh is measured before and after the exposure to the immobilized ACHE substrate. The optical cell contains a solution composed of 2 ml of 2.5.10^−3 M ACh and 2 ml of 1.10^−4 M DTNB. The optical spectra were recorded before and after 15 min of the immobilized enzyme solution insertion to this optical cell. In the In-situ experiments, the substrate is immersed in the optical cell containing various concentrations of the DTNB/ACh solution. The hydrolysis product was followed in two ways: (a) by recording the spectra in fixed time interval and (b) by the time course mode at 410 nm. […]

As for `C[N+](C)(C)CCOC(N)=O.[Cl-]` [Carbamylcholine], in data set [1], the “response of AChE-ISFET on application to the solution” value is reported as “no response”.

For the compound “surface-bound AChE (Electrophorus electricus)”, in the data set with CC(=O)OCC[N+](C)(C)C, the Km (commonly the substrate concentration at which the rate is half of its maximum) is 310 µM and the Vmax (commonly the rate approached at saturating substrate) amounted to 1e-07 M/s.
